Assay results published in PMC9911869.

Molecular target: recombinant pullulanase from Manihot esculenta Crantz (rMePUL), mature form without the transit peptide (Manihot esculenta Crantz (cassava))
Test: SEC; purified rMePUL on an MAbPac SEC-1 column (4 x 300 mm), 25 mM phosphate buffer pH 6.8 with 300 mM NaCl, 0.2 mL/min, 30°C, A280; calibrated with Bio-Rad gel filtration standards; monomer and dimer peaks

## recombinant pullulanase from Manihot esculenta Crantz (rMePUL), mature form without the transit peptide (enzyme)
  stoichiometry N: 2
